Assay [1] concerns the target human ROR1 (Receptor Tyrosine Kinase-Like Orphan Receptor 1) on the cell surface (human) (UniProt Q01973). Description: flow cytometry, B16-F10 cells expressing human ROR1 (high density). A general note: Flow cytometry measures light scatter and fluorescence of single cells or particles in a stream.
Assay [2] shares this target. Described as above. The source holds these as a separate data set.
For assay [3] the target is unchanged. Described as above. This is another data set of the same source.
Assay [4] shares this target. Description: flow cytometry, LS174T cells expressing human ROR1 (low density).
Assay [5] shares this target. Description: flow cytometry, B16-F10 cells expressing human ROR1 (high density). The source holds these as a separate data set.
Assay [6] has the same target. Described as above. This is another data set of the same source.
Assay [7] has the same target. The description is as above. This is another data set of the same source.
Assay [8] has the same target. Nature of the assay: flow cytometry, LS174T cells expressing human ROR1 (low density). This is another data set of the same source.

Sequence of human ROR1 (Receptor Tyrosine Kinase-Like Orphan Receptor 1) on the cell surface (human) (Q01973 30-937): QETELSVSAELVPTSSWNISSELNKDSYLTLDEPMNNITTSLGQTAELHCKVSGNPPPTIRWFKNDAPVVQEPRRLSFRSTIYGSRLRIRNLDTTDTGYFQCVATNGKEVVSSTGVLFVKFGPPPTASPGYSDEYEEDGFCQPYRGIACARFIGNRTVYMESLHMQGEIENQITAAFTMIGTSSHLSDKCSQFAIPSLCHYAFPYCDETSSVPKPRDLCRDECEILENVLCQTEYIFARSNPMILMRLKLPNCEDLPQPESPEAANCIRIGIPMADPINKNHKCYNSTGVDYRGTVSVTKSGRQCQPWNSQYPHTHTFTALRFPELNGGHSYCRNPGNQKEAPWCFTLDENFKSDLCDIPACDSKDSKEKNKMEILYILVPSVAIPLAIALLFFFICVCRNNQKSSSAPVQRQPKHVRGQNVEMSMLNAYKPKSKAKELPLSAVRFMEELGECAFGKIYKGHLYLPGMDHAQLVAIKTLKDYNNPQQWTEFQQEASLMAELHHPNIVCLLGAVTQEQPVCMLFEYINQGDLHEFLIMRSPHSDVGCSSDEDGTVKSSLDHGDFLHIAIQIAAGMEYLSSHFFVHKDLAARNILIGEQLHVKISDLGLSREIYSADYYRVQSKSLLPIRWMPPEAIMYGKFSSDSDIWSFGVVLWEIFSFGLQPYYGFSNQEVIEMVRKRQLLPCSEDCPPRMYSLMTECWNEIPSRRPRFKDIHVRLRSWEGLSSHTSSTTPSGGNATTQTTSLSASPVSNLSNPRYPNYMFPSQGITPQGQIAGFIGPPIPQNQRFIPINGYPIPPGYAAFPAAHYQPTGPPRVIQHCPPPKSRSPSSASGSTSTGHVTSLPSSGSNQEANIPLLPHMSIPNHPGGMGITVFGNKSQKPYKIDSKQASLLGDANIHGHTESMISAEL

B1: anti-human ROR1 (clone 2A2)-PE (antibody, from another filing, V domains shown)
VH: QVQLQQSGAELVRPGASVTLSCKASGYTFSDYEMHWVIQTPVHGLEWIGAIDPETGGTAYNQKFKGKAILTADKSSSTAYMELRSLTSEDSAVYYCTGYYDYDSFTYWGQGTLVTVSA
VL: DIVMTQSQKIMSTTVGDRVSITCKASQNVDAAVAWYQQKPGQSPKLLIYSASNRYTGVPDRFTGSGSGTDFTLTISNMQSEDLADYFCQQYDIYPYTFGGGTKLEIK
As to B1, the MFI in assay [1] came to 19900; in assay [2], 27100; in assay [3] it was 21600; in assay [4] it was 36200; in assay [5] it was 38700; in assay [6], 416000. Also, the MFI is 35200 in assay [7] and 7960 in assay [8].

The record behind these values is patent US20250313627A1.
